# Measurements: patent US8367390B2, “Galactanase variants” (Novozymes A/S, priority 2002, dated 2013)
# Like-named read-outs stand apart in the source and are kept apart here.
# B1: MTGAL: GH Family 53 galactanase from Myceliophthora thermophila, SEQ ID NO: 1 (wild type parent) (protein, listed as Myceliophthora thermophila)
# chain: ALTYRGVDWSSVVVEERAGVSYKNTNGNAQPLENILAANGVNTVRQRVWVNPADGNYNLDYNIAIAKRAKAAGLGVYIDFHYSDTWADPAHQTMPAGWPSDIDNLSWKLYNYTLDAANKLQNAGIQPTIVSIGNEIRAGLLWPTGRTENWANIARLLHSAAWGIKDSSLSPKPKIMIHLDNGWDWGTQNWWYTNVLKQGTLELSDFDMMGVSFYPFYSSSATLSALKSSLDNMAKTWNKEIAVVETNWPISCPNPRYSFPSDVKNIPFSPEGQTTFITNVANIVSSVSRGVGLFYWEPAWIHNANLGSSCADNTMFSQSGQALSSLSVFQRI
# modifications: mat_peptide (1)..()
# How the values were obtained:
# [1] = Activity on galactobiose (Gal2); type: biochemical; conditions: in 24 hours; buffer, pH and temperature per enzyme
# Protocol: (§1) The activity on the galacto-oligosaccharide substrates prepared as described above and on the commercially available galactobiose (Gal2, Megazyme) was studied for the four purified galactanases HIGAL, MTGAL, AAGAL and BLGAL. The buffers and temperatures used were: 25 mM sodium acetate, 0.5 mM CaCl2, 0.005% Triton X-100, pH 6.5 at 37° C. for HIGAL and MTGAL, 50 mM sodium acetate, 1 mM CaCl2, pH 4 at 30° C. for AAGAL and 50 mM Mes, 1 mM CaCl2, pH 6.5 at 30° C. for BLGAL. Enzyme concentrations used were 0.8 μg/ml for HIGAL, 0.2 microgram/ml for MTGAL, and 10 micrograms/ml for AAGAL and BLGAL. With HIGAL and MTGAL substrate concentrations were all 0.25 mg/ml, whereas 0.34 mg/ml Gal2, 0.050 mg/ml Gal3 and 0.067 mg/ml Gal4 were used for AAGAL and BLGAL. Enzyme activity in samples withdrawn after various incubation times was inactivated by heating to 95° C. for 10 min. Compositions of reaction products were analysed using HPAE-PAD (Dionex) applying a PA-100 column and a linear gradient of sodium acetate (0-0.18 M) in 0.15 M NaOH. Response factors of the individual carbohydrates were estimated from reference runs with MeGal3, MeGal4, Gal, Gal2, Gal3 and Gal4. Selected results are shown in Tables 2-8 below (the figures indicating weight percentage of glactooligosaccharides).
# [2] = Degradation of MeGal4, products by HPAE-PAD; type: biochemical; conditions: for Gal2 in reaction products / Gal3 in reaction products / Gal4 in reaction products / Gal in reaction products / MeGal2 in reaction products / MeGal3 in reaction products / MeGal4 in reaction products / MeGal in reaction products: MeGal4 0.25 mg/ml, pH 6.5, 37° C.
# Protocol: as §1
# [3] = type: biochemical; conditions: for Gal2 in reaction products / Gal3 in reaction products / Gal4 in reaction products / Gal in reaction products: Gal4 0.25 mg/ml, pH 6.5, 37° C.
# Protocol: as §1
# [4] = Activity on galactotriose (Gal3); type: biochemical; conditions: up to 24 hours; buffer, pH and temperature per enzyme
# Protocol: as §1
# [5] = Degradation of MeGal3, products by HPAE-PAD; type: biochemical; conditions: for Gal2 in reaction products / Gal3 in reaction products / Gal in reaction products / MeGal2 in reaction products / MeGal3 in reaction products / MeGal in reaction products: MeGal3 0.25 mg/ml, pH 6.5, 37° C.
# Protocol: as §1
molecule,measurement,setting,value
B1,Activity on Gal2,[1],"Neither of the enzymes HIGAL, MTGAL, AAGAL or BLGAL had any detectable activity"
same,Gal2 in reaction products,[2]; incubation time 0.0 hours,0.0 weight percentage
same,Gal3 in reaction products,[2]; incubation time 0.0 hours,0.0 weight percentage
same,Gal4 in reaction products,[2]; incubation time 0.0 hours,0.0 weight percentage
same,Gal in reaction products,[2]; incubation time 0.0 hours,0.0 weight percentage
same,MeGal2 in reaction products,[2]; incubation time 0.0 hours,4.7 weight percentage
same,MeGal3 in reaction products,[2]; incubation time 0.0 hours,14.8 weight percentage
same,MeGal4 in reaction products,[2]; incubation time 0.0 hours,79.0 weight percentage
same,MeGal in reaction products,[2]; incubation time 0.0 hours,1.6 weight percentage
same,Gal2 in reaction products,[2]; incubation time 0.5 hours,3.3 weight percentage
same,Gal3 in reaction products,[2]; incubation time 0.5 hours,13.7 weight percentage
same,Gal4 in reaction products,[2]; incubation time 0.5 hours,2.5 weight percentage
same,Gal in reaction products,[2]; incubation time 0.5 hours,0.9 weight percentage
same,MeGal2 in reaction products,[2]; incubation time 0.5 hours,9.6 weight percentage
same,MeGal3 in reaction products,[2]; incubation time 0.5 hours,17.1 weight percentage
same,MeGal4 in reaction products,[2]; incubation time 0.5 hours,43.9 weight percentage
same,MeGal in reaction products,[2]; incubation time 0.5 hours,8.9 weight percentage
same,Gal2 in reaction products,[2]; incubation time 2.0 hours,10.9 weight percentage
same,Gal3 in reaction products,[2]; incubation time 2.0 hours,23.9 weight percentage
same,Gal4 in reaction products,[2]; incubation time 2.0 hours,3.7 weight percentage
same,Gal in reaction products,[2]; incubation time 2.0 hours,4.8 weight percentage
same,MeGal2 in reaction products,[2]; incubation time 2.0 hours,13.6 weight percentage
same,MeGal3 in reaction products,[2]; incubation time 2.0 hours,16.0 weight percentage
same,MeGal4 in reaction products,[2]; incubation time 2.0 hours,10.9 weight percentage
same,MeGal in reaction products,[2]; incubation time 2.0 hours,16.2 weight percentage
same,Gal2 in reaction products,[2]; incubation time 5.0 hours,20.1 weight percentage
same,Gal3 in reaction products,[2]; incubation time 5.0 hours,17.9 weight percentage
same,Gal4 in reaction products,[2]; incubation time 5.0 hours,2.9 weight percentage
same,Gal in reaction products,[2]; incubation time 5.0 hours,12.4 weight percentage
same,MeGal2 in reaction products,[2]; incubation time 5.0 hours,13.9 weight percentage
same,MeGal3 in reaction products,[2]; incubation time 5.0 hours,9.9 weight percentage
same,MeGal4 in reaction products,[2]; incubation time 5.0 hours,3.5 weight percentage
same,MeGal in reaction products,[2]; incubation time 5.0 hours,19.3 weight percentage
same,Gal2 in reaction products,[2]; incubation time 24.0 hours,32.7 weight percentage
same,Gal3 in reaction products,[2]; incubation time 24.0 hours,3.4 weight percentage
same,Gal4 in reaction products,[2]; incubation time 24.0 hours,1.1 weight percentage
same,Gal in reaction products,[2]; incubation time 24.0 hours,24.2 weight percentage
same,MeGal2 in reaction products,[2]; incubation time 24.0 hours,13.3 weight percentage
same,MeGal3 in reaction products,[2]; incubation time 24.0 hours,2.3 weight percentage
same,MeGal4 in reaction products,[2]; incubation time 24.0 hours,2.9 weight percentage
same,MeGal in reaction products,[2]; incubation time 24.0 hours,20.1 weight percentage
same,Products from MeGal4,"[2]; in words, buffer, pH and temperature per enzyme","initial release mainly of MeGal, MeGal2 and Gal3 and some Gal2 but little Gal"
same,Products of Gal4 (galactotetraose) degradation,[3],"mainly to Gal and Gal2, whereas Gal3 did not accumulate"
same,Gal2 in reaction products,[3]; incubation time 0.0 hours,0.0 weight percentage
same,Gal3 in reaction products,[3]; incubation time 0.0 hours,42.0 weight percentage
same,Gal4 in reaction products,[3]; incubation time 0.0 hours,58.0 weight percentage
same,Gal in reaction products,[3]; incubation time 0.0 hours,0.0 weight percentage
same,Gal2 in reaction products,[3]; incubation time 0.5 hours,9.9 weight percentage
same,Gal3 in reaction products,[3]; incubation time 0.5 hours,27.7 weight percentage
same,Gal4 in reaction products,[3]; incubation time 0.5 hours,50.8 weight percentage
same,Gal in reaction products,[3]; incubation time 0.5 hours,11.6 weight percentage
same,Gal2 in reaction products,[3]; incubation time 2.2 hours,17.4 weight percentage
same,Gal3 in reaction products,[3]; incubation time 2.2 hours,45.5 weight percentage
same,Gal4 in reaction products,[3]; incubation time 2.2 hours,22.3 weight percentage
same,Gal in reaction products,[3]; incubation time 2.2 hours,14.9 weight percentage
same,Gal2 in reaction products,[3]; incubation time 5.0 hours,29.1 weight percentage
same,Gal3 in reaction products,[3]; incubation time 5.0 hours,29.5 weight percentage
same,Gal4 in reaction products,[3]; incubation time 5.0 hours,12.1 weight percentage
same,Gal in reaction products,[3]; incubation time 5.0 hours,29.2 weight percentage
same,Gal2 in reaction products,[3]; incubation time 72.0 hours,43.5 weight percentage
same,Gal3 in reaction products,[3]; incubation time 72.0 hours,1.5 weight percentage
same,Gal4 in reaction products,[3]; incubation time 72.0 hours,0.0 weight percentage
same,Gal in reaction products,[3]; incubation time 72.0 hours,54.9 weight percentage
same,"Activity on Gal3, products",[4],degraded Gal3 to Gal2 and Gal
same,Gal2 in reaction products,[5]; incubation time 0.0 hours,0.0 weight percentage
same,Gal3 in reaction products,[5]; incubation time 0.0 hours,0.0 weight percentage
same,Gal in reaction products,[5]; incubation time 0.0 hours,0.0 weight percentage
same,MeGal2 in reaction products,[5]; incubation time 0.0 hours,0.0 weight percentage
same,MeGal3 in reaction products,[5]; incubation time 0.0 hours,100.0 weight percentage
same,MeGal in reaction products,[5]; incubation time 0.0 hours,0.0 weight percentage
same,Gal2 in reaction products,[5]; incubation time 0.5 hours,0.0 weight percentage
same,Gal3 in reaction products,[5]; incubation time 0.5 hours,0.0 weight percentage
same,Gal in reaction products,[5]; incubation time 0.5 hours,0.0 weight percentage
same,MeGal2 in reaction products,[5]; incubation time 0.5 hours,2.7 weight percentage
same,MeGal3 in reaction products,[5]; incubation time 0.5 hours,87.2 weight percentage
same,MeGal in reaction products,[5]; incubation time 0.5 hours,10.1 weight percentage
same,Gal2 in reaction products,[5]; incubation time 2.2 hours,8.5 weight percentage
same,Gal3 in reaction products,[5]; incubation time 2.2 hours,0.4 weight percentage
same,Gal in reaction products,[5]; incubation time 2.2 hours,14.1 weight percentage
same,MeGal2 in reaction products,[5]; incubation time 2.2 hours,1.9 weight percentage
same,MeGal3 in reaction products,[5]; incubation time 2.2 hours,47.5 weight percentage
same,MeGal in reaction products,[5]; incubation time 2.2 hours,27.6 weight percentage
same,Gal2 in reaction products,[5]; incubation time 5.0 hours,10.9 weight percentage
same,Gal3 in reaction products,[5]; incubation time 5.0 hours,15.7 weight percentage
same,Gal in reaction products,[5]; incubation time 5.0 hours,2.2 weight percentage
same,MeGal2 in reaction products,[5]; incubation time 5.0 hours,3.2 weight percentage
same,MeGal3 in reaction products,[5]; incubation time 5.0 hours,50.6 weight percentage
same,MeGal in reaction products,[5]; incubation time 5.0 hours,17.4 weight percentage
same,Gal2 in reaction products,[5]; incubation time 72.0 hours,37.2 weight percentage
same,Gal3 in reaction products,[5]; incubation time 72.0 hours,23.2 weight percentage
same,Gal in reaction products,[5]; incubation time 72.0 hours,6.5 weight percentage
same,MeGal2 in reaction products,[5]; incubation time 72.0 hours,3.5 weight percentage
same,MeGal3 in reaction products,[5]; incubation time 72.0 hours,1.3 weight percentage
same,MeGal in reaction products,[5]; incubation time 72.0 hours,28.3 weight percentage
same,Release of MeGal versus MeGal2 from MeGal3,[5]; in words,much higher release of MeGal than MeGal2
